T1: recombinant mouse AXL protein (mouse, UniProt Q00993 19-445)
T1 chain: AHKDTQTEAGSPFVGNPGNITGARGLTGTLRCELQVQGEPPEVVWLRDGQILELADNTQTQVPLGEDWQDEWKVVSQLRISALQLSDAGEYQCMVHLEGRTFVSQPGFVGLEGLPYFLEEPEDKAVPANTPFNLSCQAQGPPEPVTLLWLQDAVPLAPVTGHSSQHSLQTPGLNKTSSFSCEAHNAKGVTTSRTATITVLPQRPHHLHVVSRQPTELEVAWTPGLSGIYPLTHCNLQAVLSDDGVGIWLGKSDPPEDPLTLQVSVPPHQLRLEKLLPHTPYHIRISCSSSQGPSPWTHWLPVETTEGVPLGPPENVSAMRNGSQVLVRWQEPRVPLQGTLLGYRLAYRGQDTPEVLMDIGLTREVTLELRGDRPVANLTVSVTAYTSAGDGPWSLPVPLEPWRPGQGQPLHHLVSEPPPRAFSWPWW

T2: recombinant mouse AXL protein (mouse, UniProt Q00993 19-445)
T2 chain: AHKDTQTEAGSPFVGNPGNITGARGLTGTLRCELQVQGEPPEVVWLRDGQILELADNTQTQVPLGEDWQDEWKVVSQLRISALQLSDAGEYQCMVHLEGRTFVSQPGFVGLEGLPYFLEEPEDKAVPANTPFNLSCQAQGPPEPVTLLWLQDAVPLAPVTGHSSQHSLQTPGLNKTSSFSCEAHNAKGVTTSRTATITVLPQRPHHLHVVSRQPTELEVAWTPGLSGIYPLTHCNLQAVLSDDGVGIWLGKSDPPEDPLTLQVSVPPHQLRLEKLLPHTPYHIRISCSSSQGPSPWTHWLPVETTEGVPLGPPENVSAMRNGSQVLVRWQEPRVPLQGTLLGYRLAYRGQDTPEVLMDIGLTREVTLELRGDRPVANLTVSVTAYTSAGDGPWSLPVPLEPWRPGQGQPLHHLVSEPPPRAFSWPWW


Assays:
Assay in all cases: SPR
[1] = biological target: T1, recombinant mouse AXL protein
[2] = biological target: recombinant human AXL protein (human, UniProt P30530 26-451)
Target sequence in this assay (P30530 26-451): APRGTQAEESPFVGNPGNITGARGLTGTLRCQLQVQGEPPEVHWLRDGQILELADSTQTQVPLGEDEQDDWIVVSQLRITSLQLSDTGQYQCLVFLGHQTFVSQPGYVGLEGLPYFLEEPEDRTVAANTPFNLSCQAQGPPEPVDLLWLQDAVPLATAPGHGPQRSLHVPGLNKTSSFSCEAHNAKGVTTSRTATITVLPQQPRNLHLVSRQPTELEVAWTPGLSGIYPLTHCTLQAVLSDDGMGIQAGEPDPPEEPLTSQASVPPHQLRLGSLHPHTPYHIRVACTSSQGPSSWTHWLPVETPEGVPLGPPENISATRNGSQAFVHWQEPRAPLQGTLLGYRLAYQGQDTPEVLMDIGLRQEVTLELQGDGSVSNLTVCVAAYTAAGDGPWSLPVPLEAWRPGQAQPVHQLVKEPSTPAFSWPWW

[3] = biological target: T2, recombinant mouse AXL protein
[4] = biological target: recombinant human AXL protein (human, UniProt P30530 26-451); remark: listed apart in the source
Target sequence in this assay (P30530 26-451): as above

Row | Binder | Kd [1] [nM] | Kd [2] [nM] | Kd [3] [nM] | Kd [4] [nM]
1 | anti-AXL single domain antibody sdAb12 (VHH) VHH: QVQLQESGGGLVKPGGSLRLSCVASGSIFSIYAMGWYRQAPGKQRELVAGISSGGSTNYADSVKGRFTISRDNAKNTVYLQMNSLKPEDTAVYYCNYDLVEAVTGEYDYWGQGTQVTVSS | 354 | 7.7 | – | –
2 | anti-AXL single domain antibody sdAb4 (VHH) VHH: QVQLQESGGGLVQPGGSLRLSCVASGSIFSIYAMGWYRQAPGKQRELVAGISSGGSTNYADSVKGRFTISRDNAKNTVYLQMNSLKPEDTAVYYCNYDLVKAVTGEYDYWGQGTQVTVSS | 541 | 10.8 | – | –
3 | anti-AXL single domain antibody sdAb19 (VHH) VHH: QVQLQESGGGMVQPGGSLRLSCAASGFTFTSYDMTWLRQTPGKGPEWVSTISTGGLRTYYGNSVKGRFIISRDNTKNTLYLQMNSLKPEDTALYYCARGPFTVADPRRGQGTQVTVSS | 11.8 | 24 | – | –

Now from value to binder:

Row | Kd [1] [nM] | Kd [2] [nM] | Kd [3] [nM] | Kd [4] [nM] | Binder
4 | 439 | 9.1 | – | – | anti-AXL single domain antibody sdAb25 (VHH) VHH: QVQLQESGGGLVQPGGSLRLSCVASGSIFSIYAMGWYRQAPGKQRELVAGISSGGSTNYADSVKGRFTISRDNAKNTVYLQMNSLKPEDTAVYYCNYDLVEAVTGEYDYWGQGTQVTVSS
5 | – | – | 5.2 | 22 | anti-AXL single domain antibody sdAb20 (VHH) VHH: QVQLQESGGGLVRPGGSLRLSCAASGFTFTSYDMTWLRQTPGKGPEWVSTISTGGLRTYYGNSVKGRFIISRDNTKNTLYLQMNSLKPEDTALYYCARGPFTVADPRRGQGTQVTVSS
